In patent US11780907B2, “Human antibodies to influenza hemagglutinin” (Regeneron Pharmaceuticals, Inc., priority 2018, dated 2023):
Read-outs that look alike come from different tables or passages of the source.

Columns and labels:
[1] = tested on: A/Wisconsin/67/2005 (H3N2)-overexpressing 3T3 cells; conditions: read-out: EC50 ADCC with human donor PBMCs
[2] = tested on: A/Wisconsin/67/2005 (H3N2)-overexpressing 3T3 cells; conditions: read-out: EC50 FcγRIIIA activation (ADCC-Glo reporter bioassay)

B1: H1H14612N2: fully human anti-influenza A group 2 HA monoclonal antibody, HCVR/LCVR SEQ ID NOs: 18/26 (antibody, V domains shown)
VH: EVQLVESGGGLVKPGGSLRLSCAASGFSFSGFSMNWVRQAPGKGLEWVSSISTSGNYMYYADSVKGRFTISRDNAKKSFSLQMNSLRAEDSAIYYCARGGGYNWNLFDYWGQGSLVTVSS
VL: EIVLTQSPGTLSLSPGERATLSCRASQSLNSNYLAWYQQKPGQAPRLLIYGASSRATGIPDRFSGSGSGADFTLTISRLESEDFAVYYCQQYGNSPLTFGGGTKVEIK
EC50 [1]: 0.176 nM | EC50 [2]: 0.688 nM
